Test results: paper PMC2949298

Target: 21c Fab (human)
Assay: SPR

CAP210_(V1V2) (core CAP210 gp120 containing the V1V2 loop) with sCD4 (complex)
Kd: 92 nM
